Non-standard residues stand in square brackets, D forms with d. No end group written: not given here. pY = N[C@@H](Cc1ccc(OP(=O)(O)O)cc1)C(=O)O
Target: Nck adaptor protein (Nck1), recombinant (UniProt P16333 1-377)
Assay: MST

Q: With EEHI[pY]DEVAAD [peptide Y474 (pY-containing Tir peptide)] as the binder, how does the Kd read?
A: 76.4 nM

Reference: publication PMC10755736 (2023)
